Values quoted from earlier work in paper PMC6769837.

How the values were obtained:
[1] = biological target: integrin αvβ8 (Homo sapiens) (UniProt P06756)
[2] = biological target: integrin αvβ6 (Homo sapiens) (UniProt P06756)
[3] = biological target: integrin αvβ3 (Homo sapiens) (UniProt P06756)

- Kd [1]: 0.013 nM
- Kd [2]: 10.3 nM
- Kd [3]: 8500 nM
Substance: LAP-TGFβ1 LAP (from UniProt P01137)
